Experimental data: patent US20080235828A1 (University of Manitoba, priority 2004, published 2008)

Tests used:
em promoter = em promoter driven GUS expression in bombarded barley aleurone layers; format: cell-based; conditions: em plus ABAP1 bombardment, without ABA treatment
Text: The studies examined the effector and reporter constructs, at a 1:1 ratio, introduced to barley aleurone layers by gold particle bombardment. The bombardment consisted of two trials: the first trial was a bombardment of em promoter only; the second trial was a bombardment of em promoters treated with ABAP1.

α-amylase activity = α-amylase activity in bombarded barley aleurones; format: cell-based; conditions: em and ABAP1 bombarded aleurones
Method: A similar experiment was conducted with α-amylase activity to confirm if ABAP1 is involved in another signal transduction pathway. α-amylase activity was measured after ABA, PBI51 and GA were added to the em and ADAPT bombarded barley aleurones.

McLeod barley embryos = test: Germination of bombarded mature embryos, McLeod line; format: in vivo; conditions: in the presence of ABAP1
Method: (§1) To determine whether or not ABAP1 affects seed germination, mature embryo from two different barley lines (McLeod and Harrington) were bombarded with sense and anti-sense orientation of ABAP1. The embryos were subjected to different ABA treatments and the germination rate, plumule length, radical length and root numbers per embryo were measured for up to four days after bombardment.

[1] = system: Harrington barley embryos; test: Germination and growth of bombarded mature embryos, Harrington line; format: in vivo
Method: as §1

B1: ABAP1: barley ABA-binding protein, 472 amino acids, SEQ ID NO: 10; expressed from effector construct in bombardment tests (protein)
chain: MNSLSGTYIMRGCEQPLIVRFADPKRPRPGESRGGPAFGGPGVSSRSDAALVIRPTANLDEQIGRHMPPDTWRPSSPSSMAPHQFNNFGSDNSMGLMGGPVTSAADNVAFRPQLFHGNGSLSSQTAVPASSHMGINPSLSQGHHLGGPQIPPLQKPTGLQQNFPVQLQNAQQGQLHASQSLGPGSFGQNIPTMQLPGQLPVSQPLTQQNASACALQAPSAVQSNPMQSVPGQQQLPSNLTPQMLQQPVQQMLSQAPQLLLQQQQAAMQSSYQSSQQTIFQLQQQLQLMQQQQHQQQPNLNQQPHTQVPKQQGQPVQSNAPGAPAAMMTTNINAIPQQVNSPAVSLTCNWTEHTSPEGFKYYYNSITRESKWEKPEEYVLYEQQQQQQDHQKLILLQQHQQKLVAQQLQSPPQAQTIPSMQSMQHHPQSQQGHNQMQMKQQDLNYNQLQPTGTIDPSRIQQGIQAAQERSWKS
modifications: Hordeum, vulgare subsp. vulgare
Question: What does the source list for B1?
Answer: GUS activity versus em alone (em promoter): twice fold; α-amylase activity (α-amylase activity): reduction; germination rate (McLeod barley embryos): significantly lower; germination rates [1]: did not seem to be affected; plumule and radical growth ([1]; in the presence of ABAP1): significantly retarded
